In assay [1] the target is MBP-AKAP79 (A-kinase anchoring protein 79) with C-terminal 10x His-tag (human) (UniProt P24588). The assay can be described thus: SEC-MALS; 500 μL purified complex (~2 mg/mL) on a WTC-050S5 SEC column at 0.5 mL/min, in-line refractometer and light scattering.
For assay [2] the target is unchanged. The assay can be described thus: AlphaScreen or HTRF; competition: 100 nM biotinylated PP2B and 100 nM His-tagged AKAP79 or fragment, serial dilutions of untagged PP2B; streptavidin donor and nickel acceptor beads; 25 mM HEPES, pH 7.5, 100 mM NaCl, 0.1% BSA, 3 mM CaCl2, 2 μg/mL CaM; one-site IC50 fit taken to approximate the Kd. For orientation: Bead proximity is the source of the signal in Alpha formats.

Assay [3] addresses His-tagged AKAP79 N-terminal fragment encompassing the LKIP motif (human) (UniProt P24588). Described as above.
Assay [4] concerns the target His-tagged AKAP79 C-terminal fragment (PIAIIIT region) (human) (UniProt P24588). The description is as above.
Assay [5] has as its target AKAP79-CaNAR (full-length AKAP79 fused to the N-terminus of CaNAR2pax) (human) (UniProt P24588).
Assay [6] addresses AKAP79∆L-CaNAR (AKAP79 lacking residues 122-136 fused to CaNAR2pax) (human) (UniProt P24588).

As to “calmodulin (CaM) (from UniProt P0DP23 1-149) (natural protein; other documents disagree on this pair)”, the stoichiometry N (in general, a count of units in the complex or per binding partner) in assay [1] was found to be 1.
“PP2B holoenzyme (calcium/calmodulin-dependent protein phosphatase 2B; A and B subunits), untagged (from UniProt Q08209 1-521; P63098 1-170) (complex)” came in with a stoichiometry N in assay [1] of 1. The Kd (in general, the constant that tells how readily two partners part at equilibrium) in assay [2] was found to be 12 µM; in assay [3], 81 µM; in assay [4], 5.6 µM.
“PP2B, endogenous in HEK293 cells (from UniProt Q08209 1-521; P63098 1-170) (complex)”: the time to half maximal YFP/CFP FRET response of the reporter after 1 μM ionomycin (HeLa cells) in assay [5] came out at 3.58 min; in assay [6], 2.41 min.

(Values after publication PMC5653234.)
